This passage reports activity results from patent publication US20040253631.

Data set [1] deals with T1, Lambda integrase (Int) (bacteriophage lambda) (UniProt P03700).
T1 sequence: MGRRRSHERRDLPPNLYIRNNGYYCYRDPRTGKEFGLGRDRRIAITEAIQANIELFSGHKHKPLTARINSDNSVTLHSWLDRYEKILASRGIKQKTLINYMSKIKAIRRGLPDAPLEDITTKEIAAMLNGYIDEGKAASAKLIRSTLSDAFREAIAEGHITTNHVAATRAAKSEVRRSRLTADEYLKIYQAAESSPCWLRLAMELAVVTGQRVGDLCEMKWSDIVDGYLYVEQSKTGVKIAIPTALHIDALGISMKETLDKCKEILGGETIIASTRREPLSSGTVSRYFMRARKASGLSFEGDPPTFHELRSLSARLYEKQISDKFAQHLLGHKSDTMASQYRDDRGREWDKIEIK
In words: cell_activity. The conditions noted are these: Xis, IHF.

Data set [2] has as its target Cre recombinase (bacteriophage P1) (UniProt P06956). In words: cell_activity. The conditions noted are these: background 140 without Cre; 37 C; 19/24 correct product.
Sequence of UniProt P06956 (P06956 whole entry): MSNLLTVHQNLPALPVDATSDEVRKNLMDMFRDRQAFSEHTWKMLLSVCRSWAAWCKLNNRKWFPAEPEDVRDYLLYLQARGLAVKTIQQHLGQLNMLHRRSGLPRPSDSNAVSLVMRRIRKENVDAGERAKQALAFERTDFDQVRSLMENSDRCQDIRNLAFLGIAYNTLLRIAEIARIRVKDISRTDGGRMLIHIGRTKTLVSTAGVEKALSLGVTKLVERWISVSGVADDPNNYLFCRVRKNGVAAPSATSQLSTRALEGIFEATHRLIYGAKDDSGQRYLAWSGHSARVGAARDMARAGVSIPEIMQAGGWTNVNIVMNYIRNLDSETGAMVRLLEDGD

For the substance attL wt, the activity in data set [1] (partner attR'1 (N5), Cre, background 1) came out at 4 colonies; in data set [1] (partner attR'2 (N6), Cre), 0 colonies; in data set [1] (partner attR'wt, Cre (loxP for second recombination), background 1) it was 147 colonies.

loxP / loxP 511 plasmids: the activity in data set [2] came to 760 colonies.
